This is an account of results in publication PMC5316841.

This test has as its target Fbxw7 (UniProt Q969H0). Kind of test: anti-FLAG co-IP, HSF1 immunoblot. The settings on record: reference: wild type HSF1; sites S303. Background: Immunoblotting shows a protein as a band on a membrane.

As to HSF1 (from UniProt Q00613) HSF1 S303A, the “binding against the reference” value is on record as “weaker”.
